Experimental findings from patent US20150203577A1 (Chugai, published 2015) are described below.

The target of test [1] is T1, mouse FcγRII extracellular domain, C-terminal His tag (mouse, UniProt P08101 30-210).
T1 construct: Whole entry named; also called mFcγRII; mFcgRII
T1 sequence: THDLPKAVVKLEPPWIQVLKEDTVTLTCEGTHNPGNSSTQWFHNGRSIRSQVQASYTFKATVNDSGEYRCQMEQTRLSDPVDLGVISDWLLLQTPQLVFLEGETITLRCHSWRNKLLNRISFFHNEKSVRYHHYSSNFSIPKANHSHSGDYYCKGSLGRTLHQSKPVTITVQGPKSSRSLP
Kind of test: SPR (Biacore T200), 1:1 fit. As to the method:
(§1) Each altered antibody was analyzed for its interaction with each Fcγ receptor prepared above using Biacore T100 (GE Healthcare Japan Corp.), Biacore T200 (GE Healthcare Japan Corp.), Biacore A100, or Biacore 4000. The running buffer used was HBS-EP+ (GE Healthcare Japan Corp.). The assay temperature was set to 25° C. The sensor chips used were chips prepared by immobilizing Protein L (ACTIGEN or BioVision) onto Series S Sensor Chip CM5 (GE Healthcare Japan Corp.) or Series S Sensor Chip CM4 (GE Healthcare Japan Corp.) by the amine coupling method.
(§2) In order to calculate the KD value of each altered antibody for FcγR, kinetic analysis was conducted according to the following method: first, the antibody of interest was captured onto any of these chips and allowed to interact with mFcγR diluted with a running buffer. For the obtained sensorgram, the assay results were globally fit into the 1:1 Langmuir binding model using Biacore Evaluation Software to calculate an association rate constant ka (L/mol/s) and a dissociation rate constant kd (1/s). From these values, the dissociation constant KD (mol/L) was calculated.

The target in test [2] is T2, mouse FcγRIII extracellular domain, C-terminal His tag (mouse, UniProt P08508 31-215).
T2 construct: Whole entry named; also called mFcγRIII; mFcgRIII
T2 chain: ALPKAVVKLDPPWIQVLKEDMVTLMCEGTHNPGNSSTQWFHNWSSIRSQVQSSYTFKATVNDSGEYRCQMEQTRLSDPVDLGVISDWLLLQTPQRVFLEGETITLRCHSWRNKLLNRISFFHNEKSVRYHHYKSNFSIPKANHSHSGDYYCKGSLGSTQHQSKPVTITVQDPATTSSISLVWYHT
Kind of test: SPR (Biacore T200), 1:1 fit. Here is the method:
as §1, §2

Test [3] addresses T2, mouse FcγRIII extracellular domain, …. Kind of test: SPR (Biacore T200); KD of H237-mIgG1/MRAL-k0 / KD of variant. As to the method:
as §1, §2

The target in test [4] is T3, mouse FcγRII extracellular domain with C-terminal His tag (mouse, UniProt P08101 30-210).
T3 construct: Made on the basis of NCBI NP-034317.1; also called mFcγRII; mFcgRII
T3 sequence: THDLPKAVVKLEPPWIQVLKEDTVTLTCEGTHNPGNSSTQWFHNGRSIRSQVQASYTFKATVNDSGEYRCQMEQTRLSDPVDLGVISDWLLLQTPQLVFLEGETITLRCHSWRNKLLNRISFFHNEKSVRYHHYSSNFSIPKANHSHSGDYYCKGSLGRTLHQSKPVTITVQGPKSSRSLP
The test can be described thus: SPR Biacore T200. Here is the method:
as §1, §2

Test [5] deals with T4, mouse FcγRIII extracellular domain with C-terminal His tag (mouse, UniProt P08508 31-215).
T4 construct: Made on the basis of NCBI NP-034318.2; also called mFcγRIII; mFcgRIII
T4 chain: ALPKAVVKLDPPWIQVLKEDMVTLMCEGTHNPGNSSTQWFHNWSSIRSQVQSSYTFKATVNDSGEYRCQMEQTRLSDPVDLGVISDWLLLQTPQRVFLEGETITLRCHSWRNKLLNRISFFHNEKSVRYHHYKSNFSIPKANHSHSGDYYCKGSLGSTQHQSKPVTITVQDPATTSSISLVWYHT
The test can be described thus: SPR Biacore T200. As to the method:
as §1, §2

Test [6] addresses T3, mouse FcγRII extracellular domain with …. Kind of test: SPR Biacore T200. Here is the method: as §1, §2
The source holds these as a separate data set.

Test [7] addresses T4, mouse FcγRIII extracellular domain with …. Kind of test: SPR Biacore T200. As to the method:
as §1, §2

B1: H237-MB549/MRAL-k0 (antibody, mouse IgG1, kappa)
heavy: QVQLQESGPGLVKPSETLSLTCAVSGHSISHDHAWSWVRQPPGEGLEWIGFISYSGITNYNPSLQGRVTISRDNSKNTLYLQMNSLRAEDTAVYYCARSLARTTAMDYWGEGTLVTVSSAKTTPPSVYPLAPGSAAQTNSMVTLGCLVKGYFPEPVTVTWNSGSLSSGVHTFPAVLQSDLYTLSSSVTVPSSTWPSETVTCNVAHPASSTKVDKKIVPRDCGCKPCICEPNEVEMVFIFPPKPKDVLTITLTPKVTCVVVDISKDDPEVQFSWFVDDVEVHTAQTQPREEQFNLTFRSVSELPIMHQDWLNGKEFKCRVDSDAFPAPIERTISKTKGRPKAPQVYTIPPPKEQMAKDKVSLTCMITDFFPEDITVEWQWNGQPAENYKNTQPIMDTDGSYFVYSKLNVQKSNWEAGNTFTCSVLHEGLHNHHTEKSLSHSPGK
light: not shown
notes: copies: 2 + 2
Consider B1, for which the Kd in test [1] is 1 nM; in test [2], 52.1 nM. For the same molecule, in test [3], the “relative mFcγRIII-binding activity (mIgG1 = 1)” value amounted to 5.4 fold.

B2: H237-MB515/MRAL-k0 (antibody, mouse IgG1, kappa)
heavy: QVQLQESGPGLVKPSETLSLTCAVSGHSISHDHAWSWVRQPPGEGLEWIGFISYSGITNYNPSLQGRVTISRDNSKNTLYLQMNSLRAEDTAVYYCARSLARTTAMDYWGEGTLVTVSSAKTTPPSVYPLAPGSAAQTNSMVTLGCLVKGYFPEPVTVTWNSGSLSSGVHTFPAVLQSDLYTLSSSVTVPSSTWPSETVTCNVAHPASSTKVDKKIVPRDCGCKPCICEPNEVEMVFIFPPKPKDVLTITLTPKVTCVVVDISKDDPEVQFSWFVDDVEVHTAQTQPREEQFNSTFRSVSELPIMHQDWLNGKEFKCRVNSAAFPAPIEKTISKTKGRPKAPQVYTIPPPKEQMAKDKVSLTCMITDFFPEDITVEWQWNGQPAENYKNTQPIMDTDGSYFVYSKLNVQKSNWEAGNTFTCSVLHEGLHNHHTEKSLSHSPGK
light: not shown
notes: mIgG1 with T230E/V231P/P232N/S238E/S239M (EU); copies: 2 + 2
With B2, the “relative mFcγRII-binding activity (mIgG1 = 1)” value in test [4] stood at 165. The “relative mFcγRIII-binding activity (mIgG1 = 1)” value in test [5] turned out to be 1.7. Further, the Kd worked out at 1.27 nM in test [6] and 171 nM in test [7].

B3: H237-MB475/MRAL-k0 (antibody, mouse IgG1, kappa)
heavy: QVQLQESGPGLVKPSETLSLTCAVSGHSISHDHAWSWVRQPPGEGLEWIGFISYSGITNYNPSLQGRVTISRDNSKNTLYLQMNSLRAEDTAVYYCARSLARTTAMDYWGEGTLVTVSSAKTTPPSVYPLAPGSAAQTNSMVTLGCLVKGYFPEPVTVTWNSGSLSSGVHTFPAVLQSDLYTLSSSVTVPSSTWPSETVTCNVAHPASSTKVDKKIVPRDCGCKPCICEPNEVEEVFIFPPKPKDVLTITLTPKVTCVVVDISKDDPEVQFSWFVDDVEVHTAQTQPREEQFNSTFRSVSELPIMHQDWLNGKEFKCRVNSAAFPAPIEKTISKTKGRPKAPQVYTIPPPKEQMAKDKVSLTCMITDFFPEDITVEWQWNGQPAENYKNTQPIMDTDGSYFVYSKLNVQKSNWEAGNTFTCSVLHEGLHNHHTEKSLSHSPGK
light: not shown
notes: copies: 2 + 2
On to B3, for which the “relative mFcγRII-binding activity (mIgG1 = 1)” value in test [4] stood at 214. Moreover, the “relative mFcγRIII-binding activity (mIgG1 = 1)” value in test [5] came to 3.5. Besides, the values for the dissociation constant Kd in test [6] and in test [7] were 0.979 nM and 81.4 nM, respectively.

B4: H237-MB476/MRAL-k0 (antibody, mouse IgG1, kappa)
heavy: QVQLQESGPGLVKPSETLSLTCAVSGHSISHDHAWSWVRQPPGEGLEWIGFISYSGITNYNPSLQGRVTISRDNSKNTLYLQMNSLRAEDTAVYYCARSLARTTAMDYWGEGTLVTVSSAKTTPPSVYPLAPGSAAQTNSMVTLGCLVKGYFPEPVTVTWNSGSLSSGVHTFPAVLQSDLYTLSSSVTVPSSTWPSETVTCNVAHPASSTKVDKKIVPRDCGCKPCICQPNEVEEVFIFPPKPKDVLTITLTPKVTCVVVDISKDDPEVQFSWFVDDVEVHTAQTQPREEQFNSTFRSVSELPIMHQDWLNGKEFKCRVNSAAFPAPIEKTISKTKGRPKAPQVYTIPPPKEQMAKDKVSLTCMITDFFPEDITVEWQWNGQPAENYKNTQPIMDTDGSYFVYSKLNVQKSNWEAGNTFTCSVLHEGLHNHHTEKSLSHSPGK
light: not shown
notes: mIgG1 with T230Q/V231P/P232N/S238E/S239E (EU); copies: 2 + 2
For the molecule B4, in test [4], the “relative mFcγRII-binding activity (mIgG1 = 1)” value is 246. The “relative mFcγRIII-binding activity (mIgG1 = 1)” value in test [5] came to 3.4. The Kd stood at 0.854 nM in test [6] and 84 nM in test [7].

B5: H237-MB474/MRAL-k0 (antibody, mouse IgG1, kappa)
heavy: QVQLQESGPGLVKPSETLSLTCAVSGHSISHDHAWSWVRQPPGEGLEWIGFISYSGITNYNPSLQGRVTISRDNSKNTLYLQMNSLRAEDTAVYYCARSLARTTAMDYWGEGTLVTVSSAKTTPPSVYPLAPGSAAQTNSMVTLGCLVKGYFPEPVTVTWNSGSLSSGVHTFPAVLQSDLYTLSSSVTVPSSTWPSETVTCNVAHPASSTKVDKKIVPRDCGCKPCICIPAEVEEVFIFPPKPKDVLTITLTPKVTCVVVDISKDDPEVQFSWFVDDVEVHTAQTQPREEQFNSTFRSVSELPIMHQDWLNGKEFKCRVNSAAFPAPIEKTISKTKGRPKAPQVYTIPPPKEQMAKDKVSLTCMITDFFPEDITVEWQWNGQPAENYKNTQPIMDTDGSYFVYSKLNVQKSNWEAGNTFTCSVLHEGLHNHHTEKSLSHSPGK
light: not shown
notes: copies: 2 + 2
Take B5: the “relative mFcγRII-binding activity (mIgG1 = 1)” value in test [4] was 42.9. The “relative mFcγRIII-binding activity (mIgG1 = 1)” value in test [5] came out at 1.1. For the same molecule, the Kd in test [6] stood at 4.89 nM; in test [7], 247 nM.

B6: H237-MB473/MRAL-k0 (antibody, mouse IgG1, kappa)
heavy: QVQLQESGPGLVKPSETLSLTCAVSGHSISHDHAWSWVRQPPGEGLEWIGFISYSGITNYNPSLQGRVTISRDNSKNTLYLQMNSLRAEDTAVYYCARSLARTTAMDYWGEGTLVTVSSAKTTPPSVYPLAPGSAAQTNSMVTLGCLVKGYFPEPVTVTWNSGSLSSGVHTFPAVLQSDLYTLSSSVTVPSSTWPSETVTCNVAHPASSTKVDKKIVPRDCGCKPCICEPAEVEEVFIFPPKPKDVLTITLTPKVTCVVVDISKDDPEVQFSWFVDDVEVHTAQTQPREEQFNSTFRSVSELPIMHQDWLNGKEFKCRVNSAAFPAPIEKTISKTKGRPKAPQVYTIPPPKEQMAKDKVSLTCMITDFFPEDITVEWQWNGQPAENYKNTQPIMDTDGSYFVYSKLNVQKSNWEAGNTFTCSVLHEGLHNHHTEKSLSHSPGK
light: not shown
notes: copies: 2 + 2
With B6, in test [4], the “relative mFcγRII-binding activity (mIgG1 = 1)” value was found to be 57.6. Besides, the “relative mFcγRIII-binding activity (mIgG1 = 1)” value in test [5] is 1.4. The Kd in test [6] was 3.65 nM; in test [7] it was 196 nM.

B7: H237-MB486/MRAL-k0 (antibody, mouse IgG1, kappa)
heavy: QVQLQESGPGLVKPSETLSLTCAVSGHSISHDHAWSWVRQPPGEGLEWIGFISYSGITNYNPSLQGRVTISRDNSKNTLYLQMNSLRAEDTAVYYCARSLARTTAMDYWGEGTLVTVSSAKTTPPSVYPLAPGSAAQTNSMVTLGCLVKGYFPEPVTVTWNSGSLSSGVHTFPAVLQSDLYTLSSSVTVPSSTWPSETVTCNVAHPASSTKVDKKIVPRDCGCKPCICEPAEVESVFIFPPKPKDVLTITLTPKVTCVVVDISKDDPEVQFSWFVDDVEVHTAQTQPREEQFNSTFRSVSELPIMHQDWLNGKEFKCRVNSAAFPAPIEKTISKTKGRPKAPQVYTIPPPKEQMAKDKVSLTCMITDFFPEDITVEWQWNGQPAENYKNTQPIMDTDGSYFVYSKLNVQKSNWEAGNTFTCSVLHEGLHNHHTEKSLSHSPGK
light: not shown
notes: copies: 2 + 2
B7: the “relative mFcγRII-binding activity (mIgG1 = 1)” value in test [4] is 28.1. In addition, in test [5], the “relative mFcγRIII-binding activity (mIgG1 = 1)” value was determined as 1.1. In addition, the Kd in test [6] is 7.47 nM; in test [7], 258 nM.

B8: H237-MB513/MRAL-k0 (antibody, mouse IgG1, kappa)
heavy: QVQLQESGPGLVKPSETLSLTCAVSGHSISHDHAWSWVRQPPGEGLEWIGFISYSGITNYNPSLQGRVTISRDNSKNTLYLQMNSLRAEDTAVYYCARSLARTTAMDYWGEGTLVTVSSAKTTPPSVYPLAPGSAAQTNSMVTLGCLVKGYFPEPVTVTWNSGSLSSGVHTFPAVLQSDLYTLSSSVTVPSSTWPSETVTCNVAHPASSTKVDKKIVPRDCGCKPCICEPAEVEMVFIFPPKPKDVLTITLTPKVTCVVVDISKDDPEVQFSWFVDDVEVHTAQTQPREEQFNSTFRSVSELPIMHQDWLNGKEFKCRVNSAAFPAPIEKTISKTKGRPKAPQVYTIPPPKEQMAKDKVSLTCMITDFFPEDITVEWQWNGQPAENYKNTQPIMDTDGSYFVYSKLNVQKSNWEAGNTFTCSVLHEGLHNHHTEKSLSHSPGK
light: not shown
notes: copies: 2 + 2
For B8, in test [4], the “relative mFcγRII-binding activity (mIgG1 = 1)” value was determined as 46.3. In addition, the “relative mFcγRIII-binding activity (mIgG1 = 1)” value in test [5] was 0.6. Also, the Kd came out at 4.53 nM in test [6] and 509 nM in test [7].
